Results from the DeepSol protein solubility set.

Test: soluble on expression in E. coli; label from the status in PepcDB or PDB records

Sequence	soluble on expression in E. coli
MGSDKIHHHHHHMISQHVRKKTREYPNRFFDSSVWNDLALRRGDIVIASYAKAGTTWLQQIVAQLIFGGEPNIDVSAISPWVDGVYPDKATKLALLEAQSQRRFMKTHLPADALVTSPLARYLYIGRDGRDIALSLYDHQCAVSQDAQARVHANGGKSGKLRVVSPPGLPRDAYVAHWLEYDGAPFWPLWENVRSWWERREDANVLLLHYADLLDDLPGQIRLIAAFLGITVAQDRWDAIVAHCRFDYMRQHAARYVPQGTGLWREDGKAFFNQGRIGRWREVLPAELNTAYSRRAEAELGRDAAQWLAHGQTQTS	not soluble
MGSDKIHHHHHHMISQNSCQINESDLKNLKDWFYRYVRSFYSSDSIIQQAILLKEKHSLRVCNEILNIGKKLDLSHNALRLAEVMALFHDIGRFQQFVRYQTFVDQKSENHGELGVRILKQEKALAALDRDARELILKAISYHNRLTIPENESPICTYFSRLLRDADKLDIYYVVTTCYNSNGTERKAAVELDLPDTPEVSGEILISLIEEKMISLHQLKSLNDFKLLQMAWVYDINYLPTFRMIYERNYLRKIRDTLPGTEEIEQVYCKLISFLKAKL	not soluble
MGSDKIHHHHHHMISQRALEAFRAVMTTGTVSAAAEELNVSQPAVSRLVRDLEEYTQLRLFSRHGGRIVATREAHEFNAEIERSFLGLRVIEQAAREIRQGRRGTVSVAVMPALAQTILPDVMADVRVSHPDFRLELLAMPTQSIVRQVATRQCPLGLTSPTHHANEVDVVKSGSLPYRCVMPDGHPLAAYEIIRLQDLSGMEFINYTDATATGRMLDHRFAHMTTPPVVNARAPISPVIAALVRKGLGVAILDPFTAQDHVNRGGVSRPVQIDEEFHWSFIKPYGEKLSSDLMAVISIFEDLSKNYA	not soluble
MGSDKIHHHHHHMITIKEYVVPKSLDEAYELLISRKNNIILGGCGFLKLGSKNIGSAIDLKDLALDYINETDDSILIGADTSLRTLELNKVIKNYCNGVISNAVSNIVGVQFRSGARVGASVFAKYGFSDLIPSLLVVDAKVKLYKKGVMNLADFLENELEKDILIEVILPKKDAIGVFDSIRKCTGDFAVLNGAMLKEGSIYKIAIGARPRRAKIAYKASEILSLENDIEKAGEVSSEELSFGSNIRGSKEYRKDMAKALVVRMYNSIGGECDGK	not soluble
MGSDKIHHHHHHMITTEAWVLYAGPEQTKKHAPVPGELRRETFQFAGLEDDEALVEPLYGSWEANLDHALSRNPVDICRQRGEEKIVLGNGALVRVVDRGRGAKHPEIGEICMVMPFGKRDQYGFAELVYAYDAPGTIGVMARRTKIRADNLVPVPKGSRHSLLQWATYGRYFTAWDNWKVASKCWRAQLPDVDPADYLVFGWGGGTTLAELQLAKREGFRVAMTASGDKRLADIEKLGITPVDRRRFPHLAYDEERYRSDPEYQAHYRASESAFAEIIGELSGGRGVAIFLDNLGGALYRATMRVIGRTGIVATVGWKTGMRLWNLRATECINRRLHIHTHAWRYDDSEAIRDFQESSDWVGPEPTEIYGFDDVPALASDYVNGKIKTYFPLYQVNPV	not soluble
MGSDKIHHHHHHMITVVGGTFSKLHKGHKALLEKAIETGNEIVIGLTSDEYVKRNKVYPAIPYKERYRNLYNYMVKKTNKFRIRPIDDRNGNAPYERDYEIIVVSPETYQRSLKINEIRIQNGLPPLKIIRVPYVLAEDLFPISSTRIINGEIDGNGRRLKPVKVAIATNNSAKLKATNDFFHKLMKNFDVIQNTDYKLETQQPFGEVTMNMATKRAMQSLGDNDYAIGIESGIVYERFSRKYFDFHYCVVIDRFGNVTRGSSSGFEVPDRIIDLIKRDMSFSQAYGKVIDTNGIDDSTGIVGKISNGRVRRYDLIMECIRNAFIPRFDPDFYDTTYTPP	not soluble
MGSDKIHHHHHHMIVDNDLISIQEARILAENAGRAQRVLATFSQEQLDEIVEAVAEAVGAQAQALADMAYEETDYGNPHDKAVKNRFVCTQVREQLRGMRCVGVIGRDEHARTMDIGVPVGVIAALCPATSPVSTTICKTLIAVKSGNAVVFSPHPRAARSIAAALDIMIDAARAHGLPEGCLSYMSTVTKSGTAELMNHPATSLVMLSGVPGMIGLARCSGKPVIYGGTGNGPAFVERSADIRRAVADIMLSKTFDNGIAPSAEQSIVVDSCIEREVRHALQECGAYFMTDEESLRLAELLFCADGRHKAGMVGVSAPVLARRAGISVPDNVRLLVAERKYVSEADPYSRELLSPVLAYYVEDDWMHACEKCIELLLHERNAHTLVIHSSNEEVILQFALKKPVGRLLVNTPATFGGMGVTTNLFPSMTLGSGSAGRGITADNVSPMNLIYIRKVGYGVRQYTGAQDAAGYGSRVCAAQGVMAPHDSDSRKMQALHRILMEAIGVMDGAAHR	not soluble
MGSDKIHHHHHHMIVINMFSSANKVAGQGVGAVYTELMGLLKHDFSNEFEVNVNRYTRSDISHYHTIDPKFYLSTFSKKRGRKIGFVHFVPSTLDASLKLPRVARWTLDKYTLAFYKRMDQLVVVNPNFIPKLEAYGISRDKVTYIPNFVSQRTFHPVSTEKRQALRHANGFKPDDFVIFGAGQVQDRKGVSDFIKLAKQNPEFRFVWAGGFSFGRITEGYDHLKKAVAEAPANLDFTGIMPRETMIDYYNMADVFLLPSYEELFPMSVLEAFATGTPVMVRDLELYHQIITPYAITAVDVDDMQSRLRALADDHDLLATYATKSRQAAEVYDESRLEKVWHDFYLHQAALGKH	not soluble
MGSDKIHHHHHHMIYLDQAASSFPKPKEVAEAMVAAVNEYGANPGRGGHRLATQARVTIDETRELLKTLFNAPSKKHVWFYQNATGALNQALFGFPFKEGDHVVSTALEHNSVRRPLEQLRERNGLVITYAQPDEEGIISPEKIAQACTDQTKAIVLSHGSNVTGAYLELEKIGEMAEAHGIVFIVDASQTAGVIDIDMKRDRISMLACAGHKGLLGPQGTGVLIVADDYGLTPLSYGGTGSYSELIDQPSQWPDRYESGTLNTPGIAGLKAGIEYVLDNGVAQIFAHEWALTERLLKGLGAQKVDVYGPPLPRKRLGVVSFRLSGFDSHEVALILDEHYQIAVRAGLHCAPMTHETLQTTDTGLIRVSVGPFNTEREVDQLLQAVMDIQQAFTS	not soluble
MGSDKIHHHHHHMKAAIITKYKQITPMVTEVPVPTIAPTDVLVKIVAASVNPIDLKTKDGDLRLLLQYTMPLIMGSDFAGVITAVGDQVPDFKVGDAVYGRAPKDRIGTFAEFIAIDHQAIALKPANLNFEEAAAIPLVGLTSYQALHDIMNIQPGQKVFIPGGSGGIGIIAIQLAKYFGAYVATTTSAKHFDLVQSLGADKIIDYHQQDFTDVLSHYDAVLDTRGGQSLEAAFQIIKPGGQIVSIAGLPNARFGKDYGLPIWKQWLLGLATRKLSRLEQQAQATYSFLFMQPSGQQLVRLRQLIEQGVIKPVVDRIIPLTDINAALEYSHSGHTTGKIIISIQPN	not soluble
MGSDKIHHHHHHMKAIGYQTAGAITAPNALENITLAEPTATGFDLLVEIKAISVNPVDTKIRASSSAPTGEYKIIGWDAVGVVKAVGEKVSLFNVGDEVWYAGDISRSGSYAEYQLVDERIVGHKPKSLTYTQAAALPLTGITAWEILFDRLALPQDGSATDARILIIGAAGGVGSIITQLAVKLTGAEVIGTASRPESAAWVHKLGANAVINHTKPLSKELANIGITDVTHVISLTQTDQHFDEIVQVLKPQGKLALIDDPKGPLDVMKLKRKSLSLHWELMFTRSLYQTEDMIAQHHLLNRLSALIDTGELQSTFGEHYGTINAQNLIKAHAQIESGKAIGKIVLEGFNQ	not soluble
MGSDKIHHHHHHMKAYLVGLYTLTPTHPGSGTELGVVDQPIQRERHTGFPVIWGQSLKGVLRSYLKLVEKVDEEKINKIFGPPTEKAHEQAGLISVGDAKILFFPVRSLKGVYAYVTSPLVLNRFKRDLELAGVKNFQTEIPELTDTAIASEEITVDNKVILEEFAILIQKDDKGILESVVKAIEQAFGNEMAEKIKGRIAIIPDDVFRDLVELSTEIVARIRINAETGTVETGGLWYEEYIPSDTLFYSLILVTPRAKDNDMALIKEVLGKINGKYLQIGGNETVGKGFVKVTLKEVTNNGGTHAK	not soluble
MGSDKIHHHHHHMKCSKCSAEAIYYAKYNGLYLCRDHFNEMIEGRVKKEIRKQVEFHGDDVTISVALSGGKDSSVTLFLLHKILGNRKNMKIKAFTVDEGIDGYRPSGLESAKRLCTSLGIDHETISFYDSYGLTLDSIVKTNPVKIPCAYCGPLRRKLINEMADKQDADYVALGLNLDDYSQSILMNVAKGDFDRFIRMSPQTDRKVGLVRRIAPLRTILEKEVVLYAVTNDIPFDSSWCPYYSRAQRNVFREVVNKLSEENPSTKFAILKFFDRVRENITTGHEEVKLKRCKICGAPTERDVCTACSSLQEVNEMMAEH	not soluble
MGSDKIHHHHHHMKEILTVTELNSYIANLLDSDPFLGQLWLRGEISGFRLYQQSGHMYFTLKDEDSTISAVMFKSRARGLKFKPKDGMEVLLRASVSVFARQGKYQLYVEEMQPYGIGGLFLYLEELKKKLAAKGYFAPERKKAIPAFVQRVGIVTSQDGAALRDICRILKQRHPGVEVVLAHSSVQGSEAPGELAEGLRLLNSYAEVELIIIGRGGGSYEDLMAFNSELVVQAIYESNIPVISAVGHEVDFTLADLVADLRAATPSQAASLAVADMQALSRQLDNYQQRLLRAMQRKLLYYTEIIDRLMMKRIWKQPRSLLHMREELLSQLEKSLSRGMAEIFREKKMKLSMNMAALDSLSPLKIMERGYVLLQKEGRIIRDEQQVQIGDRLEVAMRHADLEIEVIKKERVKRWKS	not soluble
MGSDKIHHHHHHMKEKVFRDPVHNYIPVEDELIYDLINSKEFQRLRRIKQLGSSSFTFHGAEHSRFSHCLGVYYLARRVTNIFDKKYSDIWNSNESLLTMTAALLHDIGHGAYSHTFERLFDTNHETITQQIILSPETEINTILRRVSPDFPDKVASVINHTYSNKQVEQLISSQIDVDRMDYLLRDSYFTGASYGEFDLTRVLRVIRPIENGIAFSRDGMHAVEDYIISRYQMYMQVYFHPASRAMEVLLQNLLKRAKYLYPKEKEFFTVTSPHLIPFFENRVTLEDYLSLDDGVMNTYFQTWMQSADKILSDLASRFINRKVFKSITFDEKDLSNLEKLRKIVKDLGFDPTYYTALHLNFDLPYDVYKPDVQNPRTQIEMLQEDGSIAELSTLSPLVHTLSGTTHGDRRFYFPKEMLIKDGLFVEAKEKFSHYIKNKHFYNLRE	not soluble
MGSDKIHHHHHHMKELFEFNNVSFSYKDVKEQALVDLNFSIKKGSLTLITGSSGSGKSTLLKLMNGLIPRLYDGKLVGEILFENNSLQSLTQESISKNIGYVSQDPRGQFFTTNTTSELVFSMENFGFTKEHMDKRINELAELLDLSNILDKNIFSLSSGERQKISIGCSLSLNSKLIILDEPSSNLDFQATKKLADLLCDLKNKGFTIVIAEHRFYYLKELIDQVLFVKNRTVKTTTIQLLKTENNNALRKFDIFNSSIEVPYIEKASADVLKVEEITYENILKDINFDVKVGDVIGLVGKNGVGKTTLLRILMKIIRPTKGKIIENKKNLSSPFLVMQEMDYQFFTESVRSELALGNEIVSKDQQEKILKKMELYKMKDQLPFDLSGGEKQRLLVSIASLSKTNLFLFDEPTSGLDYINMERIADLIKDLKEKGAVVIATHDPEFLYKICNRIIYLKNGGIKKDIKLRVEDSTLIEQIFNDITK	not soluble
MGSDKIHHHHHHMKELRIDPITNDVVIFATDRLKRPLDTADIPNEDEETNEYDEECPFCKGNEAHATDALFEIDSEEGWLVKSVYNKFPIIDDMARDVYGVHEVMIESDKHNRSFYNMSQKEFEDVFFMYRNRFRDLSKDDKVEYVSIFKNFLRKAGASLMHPHAQILSMSFIPPEITNELLVSKEYYDSNKSSLYDDLIENEISLDRRVVYNGEAFLVLIPYATKYSGEVRIIFKDKIEFGELNDNNIQELSTIFEKLFKKLYNINGYMPFNLCIHTHPTKIETKSYFNVHMHIIPRKYNFGGFELGTNMYVSSMSPEDLTKKLKID	not soluble
